Marks after values point to notes of the source that are not given here.
Experiments:
endoglin [1] = assay: TGFβ1 stimulation of right ventricular fibroblasts (RVFB) pretreated with N-Eng Ab; assay type: cell-based, mouse and human; conditions: N-Eng Ab 10, 50, 100 μg/mL, TGFβ1 10 ng/mL
Method: (§1) 115:67-75, 2007 and Neuss et al., Cell Tissue Res. 286:145-153, 1996. For neutralizing antibody studies in vitro, mouse cardiac fibroblasts were pretreated with 10, 50, or 100 ug/mL of either a N-Eng Ab or control IgG Ab for 24 hours in fibroblast basal medium without supplementation prior to stimulation with TGFβ1 (10 ng/mL). After 24 hours, cells were harvested for analysis. […] 7:e5-920, 2012.

endoglin [2] = target: T1, endoglin (Mus musculus, UniProt Q63961); assay: Severe RVPO induced by PAC for 7 days in wild-type mice pre-treated with N-Eng Ab
T1 sequence (Q63961 27-653): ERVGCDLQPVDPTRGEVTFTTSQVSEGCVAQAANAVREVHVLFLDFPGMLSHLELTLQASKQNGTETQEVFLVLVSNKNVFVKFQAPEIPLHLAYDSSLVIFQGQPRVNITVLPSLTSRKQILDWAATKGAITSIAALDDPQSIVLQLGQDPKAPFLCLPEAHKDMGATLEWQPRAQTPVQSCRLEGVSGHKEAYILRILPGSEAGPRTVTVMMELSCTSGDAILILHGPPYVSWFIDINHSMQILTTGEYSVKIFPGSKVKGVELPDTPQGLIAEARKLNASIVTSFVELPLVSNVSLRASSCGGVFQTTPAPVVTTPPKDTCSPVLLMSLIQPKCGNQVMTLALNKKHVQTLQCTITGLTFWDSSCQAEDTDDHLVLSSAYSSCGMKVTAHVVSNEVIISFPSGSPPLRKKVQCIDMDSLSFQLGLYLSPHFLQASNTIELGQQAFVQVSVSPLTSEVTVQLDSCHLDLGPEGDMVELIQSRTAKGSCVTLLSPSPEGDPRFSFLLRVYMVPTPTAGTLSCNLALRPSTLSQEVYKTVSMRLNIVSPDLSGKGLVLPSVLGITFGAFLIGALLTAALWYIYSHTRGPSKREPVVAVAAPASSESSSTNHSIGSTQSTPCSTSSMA
Method: (§2) Specifically, mice were intubated using a 24G angiocath and mechanically ventilated (Harvard Apparatus) at 95 breaths per minute with a tidal volume of 0.3 mL with 2.0-2.5% Isoflurane and 100% flow-through oxygen. Depth of anesthesia was monitored by assessing palpebral reflex, toe pinch, respirations, and general response to touch. Using sterile technique, a left thoracotomy was performed to isolate and encircle the main pulmonary artery using a 7-0 nylon suture that is then tied tightly around a pre-sterilized, blunt end needle. After de-airing, the thorax is closed with layered 6-0 Dexon sutures to eliminate the risk of pneumothorax. Post-operative analgesia is immediately provided with subcutaneous buprenorphine 0.1 mL, which is continued twice daily and as needed for an additional 72 hours. Severe RVPO was induced by PAC with a 25G needle for 7 days in WT and Eng+/− mice. To investigate the role of endoglin in RVPO, WT mice received 15 mg/kg of either a neutralizing antibody to endoglin (N-Eng Ab; TRC105; Tracon Pharma) or an IgG1 control antibody (IgG Ab; R&D Systems) via single intraperitoneal injection 1 day prior to and 3 days after induction of severe RVPO. To study the effect of blocking endoglin activity after induction of RVPO, WT mice were randomized to receive biweekly IP injections for three weeks of 15 mg/kg N-Eng Ab or IgG control Ab beginning three weeks after induction of moderate RVPO using a 23G needle for PAC. […] After 7 days of severe PAC or 3 to 6 weeks of moderate RVPO, mice underwent hemodynamic analysis with a RV conductance catheter (Millar Inc) as previously described in Kapur et al., PLoS ONE. […] Briefly, mice were anesthetized with 2.0% isoflurane administered via a non-invasive nose-cone. Body temperature was monitored by a rectal thermistor probe and maintained at 37.5° C. with heating pads and a cycling heat lamp. In the supine position, the right external jugular vein was surgically isolated. A conductance catheter was advanced into the right ventricle for pressure-volume loop acquisition as described in Kapur et al., PLoS ONE. […] After completion of the hemodynamic study, with the animal still under isoflurane anesthesia, the chest was rapidly opened, and the mouse was euthanized by arresting the heart in diastole with 0.3 mL of 1N KCL injected directly into the left ventricle. The heart was then removed and processed for either biochemical or histologic analyses.
(§3) All animals underwent terminal hemodynamic evaluation. Right heart catheterization was performed at the time of sacrifice in all animals. Mice were anesthetized with 2.0% isoflurane administered by a noninvasive nose cone. Body temperature was monitored by a rectal thermistor probe and maintained at 37.5° C. with heating pads and a cycling heat lamp. In the supine position, the right common carotid and right external jugular vein were surgically isolated. Silk ties were placed at the distal ends of both vessels while overhand loops were placed at the proximal ends with 7-0 nylon. A Millar PVR-1035 (Millar Instruments) mouse conductance catheter was used for RV recordings.

endoglin [3] = target: T1, endoglin; assay: Chronic moderate RVPO (PAC), antibody given from week 3 to week 6
Method: as §2, §3

endoglin [4] = target: T2, endoglin (Homo sapiens, UniProt P17813); assay: TGFβ1 stimulation of left ventricular fibroblasts (LVFB) pretreated with N-Eng Ab; assay type: cell-based, mouse and human; conditions: N-Eng Ab 10, 50, 100 μg/mL, TGFβ1 10 ng/mL
T2 construct: endogenous in cells; host or cells: primary right and left ventricular cardiac fibroblasts (mouse and/or human)
T2 sequence (P17813 26-658): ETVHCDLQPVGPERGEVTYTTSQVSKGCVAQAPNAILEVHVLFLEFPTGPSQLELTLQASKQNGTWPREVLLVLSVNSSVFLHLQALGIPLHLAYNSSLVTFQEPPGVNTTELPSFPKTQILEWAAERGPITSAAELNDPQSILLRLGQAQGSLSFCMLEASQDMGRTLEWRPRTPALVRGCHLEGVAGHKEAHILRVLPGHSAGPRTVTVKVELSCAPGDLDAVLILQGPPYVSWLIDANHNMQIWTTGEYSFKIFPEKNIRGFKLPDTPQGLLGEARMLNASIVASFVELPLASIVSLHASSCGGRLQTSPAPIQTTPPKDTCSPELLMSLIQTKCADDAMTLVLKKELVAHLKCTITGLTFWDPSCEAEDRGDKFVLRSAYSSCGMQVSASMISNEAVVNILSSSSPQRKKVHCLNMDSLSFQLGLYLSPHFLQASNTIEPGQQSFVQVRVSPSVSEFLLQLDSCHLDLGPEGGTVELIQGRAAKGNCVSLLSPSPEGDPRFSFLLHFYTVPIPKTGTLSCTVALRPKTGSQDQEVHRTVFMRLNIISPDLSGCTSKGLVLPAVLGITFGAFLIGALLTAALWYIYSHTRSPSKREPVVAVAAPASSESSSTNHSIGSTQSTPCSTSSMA
Method: as §1

[5] = Sham, wild-type mice + N-Eng Ab 15 mg/kg IP
[6] = after severe RVPO, compared to the IgG group
[7] = severe PAC 7 days, N-Eng Ab 15 mg/kg IP 1 day prior and 3 days after
[8] = 6 weeks moderate RVPO, antibody for the last 3 weeks
[9] = moderate PAC 6 weeks, N-Eng Ab 15 mg/kg IP biweekly for the last 3 weeks

N-Eng Ab: neutralizing IgG1 antibody that binds human and mouse endoglin (TRC105), provided by Tracon Pharmaceuticals
TGFβ1 induced calcineurin protein expression (endoglin [1]): inhibited
TGFβ1 induced protein levels of pERK-1/2 (endoglin [1]): inhibited
TGFβ1 induced protein levels of pSmad-3 (endoglin [1]): inhibited
TGFβ1 induced α-SMA protein expression (endoglin [1]): inhibited
TGFβ1 induced calcineurin protein expression (endoglin [1]; listed as TRC105): attenuated
Cardiac output (endoglin [2]; [5]): 4.0 ± 1 mL/min
Heart rate (endoglin [2]; [5]): 512 ± 59 beats per min
LV weight/tibial length (endoglin [2]; [5]): 6 ± 0.01
RV +dp/dt (endoglin [2]; [5]): 2171 ± 283 mm Hg/sec
RV end-diastolic pressure (endoglin [2]; [5]): 3 ± 2 mm Hg
RV stroke volume (endoglin [2]; [5]): 8 ± 2 µL
RV systolic pressure (endoglin [2]; [5]): 24 ± 3 mm Hg
RV weight/tibial length (endoglin [2]; [5]): 1.5 ± 0.01 g/mm
RV −dp/dt (endoglin [2]; [5]): 1963 ± 257 mm Hg/sec
Total body weight (endoglin [2]; [5]): 28 ± 1 g
Survival (endoglin [2]; after 7 days of severe RVPO, compared to IgG treatment): improved survival
RV MYH7 mRNA levels (endoglin [2]; after severe RVPO): reduced
RV TRPC-6 mRNA levels (endoglin [2]; after severe RVPO): reduced
RV mass (degree of hypertrophy) (endoglin [2]; after severe RVPO): attenuated
RV α-SMA mRNA levels (endoglin [2]; after severe RVPO): reduced
RV Type I collagen levels (endoglin [2]; [6]): reduced
RV calcineurin levels (endoglin [2]; [6]): reduced
RV fibrosis (endoglin [2]; [6]): significantly reduced
RV pERK-1/2 levels (endoglin [2]; [6]): reduced
RV pSmad-3 levels (endoglin [2]; [6]): reduced
Cardiac output (endoglin [2]; [7]): 2.4 ± 0.2 mL/min
Heart rate (endoglin [2]; [7]): 514 ± 52 beats per min
LV weight/tibial length (endoglin [2]; [7]): 5 ± 0.02
RV +dp/dt (endoglin [2]; [7]): 4130 ± 563 mm Hg/sec
RV end-diastolic pressure (endoglin [2]; [7]): 4 ± 2 mm Hg
RV stroke volume (endoglin [2]; [7]): 5 ± 1 µL
RV systolic pressure (endoglin [2]; [7]): 53 ± 9 mm Hg
RV weight/tibial length (endoglin [2]; [7]): 1.9 ± 0.01*^,† g/mm
RV −dp/dt (endoglin [2]; [7]): 3287 ± 350 mm Hg/sec
Total body weight (endoglin [2]; [7]): 24 ± 2 g
RV cardiomyocyte cross sectional area (endoglin [2]; severe RVPO, compared to IgG controls (p=0.09)): trend towards lower cardiomyocyte hypertrophy
Calcineurin protein expression (endoglin [3]; [8]): reduced
RV fibrosis (endoglin [3]; [8]): significantly reduced
Type I collagen protein expression (endoglin [3]; [8]): reduced
RV fibrosis (endoglin [3]; 6 weeks moderate RVPO, antibody for the last 3 weeks, listed as TRC105): reduced RV fibrosis
Cardiac output (endoglin [3]; [9]): 1.4 ± 0.6 mL/min
Heart rate (endoglin [3]; [9]): 550 ± 52 beats per min
LV weight/tibial length (endoglin [3]; [9]): 4.5 ± 0.2 g/mm
RV +dp/dt (endoglin [3]; [9]): 4072 ± 875 mm Hg/sec
RV end-diastolic pressure (endoglin [3]; [9]): 2 ± 1 mm Hg
RV stroke volume (endoglin [3]; [9]): 3 ± 2 µL
RV systolic pressure (endoglin [3]; [9]): 69 ± 14 mm Hg
RV weight/tibial length (endoglin [3]; [9]): 2.5 ± 0.4 g/mm
RV −dp/dt (endoglin [3]; [9]): 3916 ± 875 mm Hg/sec
Total body weight (endoglin [3]; [9]): 27 ± 2 g
Mortality (endoglin [3]; moderate RVPO, any time point): No mortality was observed
TGFβ1 induced calcineurin protein expression (endoglin [4]): not LVFB
TGFβ1 induced protein levels of pERK-1/2 (endoglin [4]): inhibited
TGFβ1 induced protein levels of pSmad-3 (endoglin [4]): inhibited
TGFβ1 induced α-SMA protein expression (endoglin [4]): not LVFB
TGFβ1 induced calcineurin protein expression (endoglin [4]; listed as TRC105): not LV fibroblasts

Source: patent US10703820B2, “Methods and compositions for reducing cardiac damage and other conditions” (Tufts Medical Center, Inc., priority 2013, dated 2020)
